# Patent US20240034774A1 (Gilead, published 2024)
# Where a chain is given by its changes, count along the chain named.
# B1: 1.16.1-1 (antibody, human IgG1, kappa)
# heavy: QVQLLQSGAAVTKPGASVRVSCEASGYNIRDYFIHWWRQAPGQGLQWVGWINPKGGQPNNPRQFQGRVSLTRHASWDFDTFSFYMDLKALRSDDTAVYFCARQRSDYWDFDVWGSGTQVTVSSASTKGPSVFPLAPSSKSTSGGTAALGCLVKDYFPEPVTVSWNSGALTSGVHTFPAVLQSSGLYSLSSVVTVPSSSLGTQTYICNVNHKPSNTKVDKKVEPKSCDKTHTCPPCPAPELLAGPDVFLFPPKPKDTLMISRTPEVTCVVVDVSHEDPEVKFNWYVDGVEVHNAKTKPREEQYNSTYRVVSVLTVLHQDWLNGKEYKCKVSNKALPLPEEKTISKAKGQPREPQVYTLPPSREEMTKNQVSLTCLVKGFYPSDIAVEWESNGQPENNYKTTPPVLDSDGSFFLYSKLTVDKSRWQQGNVFSCSVLHEALHSHYTQKSLSLSPGK
# light: DIQMTQSPSSLSASVGDTVTITCQANGYLNWYQQRRGKAPKLLIYDGSKLERGVPSRFSGRRWGQEYNLTINNLQPEDIATYFCQVYEFVVPGTRLDLKRTVAAPSVFIFPPSDEQLKSGTASVVCLLNNFYPREAKVQWKVDNALQSGNSQESVTEQDSKDSTYSLSSTLTLSKADYEKHKVYACEVTHQGLSSPVTKSFNRGEC
# B2: 1.24.1-1 (antibody, human IgG1, kappa)
# heavy: B1 heavy with G55T, Y84S
# light: B1 light
# B3: 1.31.33-1 (antibody, human IgG1, kappa)
# heavy: B1 heavy with L5V, A10E, G55T, V97T
# light: B1 light with K49N, N68T, N72S, N73S, R95N, L98I
# B4: 1.29.1-1 (antibody, human IgG1, kappa)
# heavy: B1 heavy with G55T, S115Q
# light: B1 light
# B5: 1.20.1-1 (antibody, human IgG1, kappa)
# heavy: B1 heavy with G55T, S69T, L70M
# light: B1 light
# B6: 1.31.31-1 (antibody, human IgG1, kappa)
# heavy: B1 heavy with L5V, A10E, G55T, V97T
# light: B1 light with N68T, N72S, N73S, R95N
# B7: 1.27.1-1 (antibody, human IgG1, kappa)
# heavy: B1 heavy with G55T, S105T
# light: B1 light
# B8: 1.28.1-1 (antibody, human IgG1, kappa)
# heavy: B1 heavy with G55T, V97T, S105T
# light: B1 light
# B9: 1.31.34-1 (antibody, human IgG1, kappa)
# heavy: B1 heavy with L5V, A10E, G55T, V97T
# light: B1 light with K49N, N68T, N72S, N73S, V91T, L98I
# B10: 1.21.1-1 (antibody, human IgG1, kappa)
# heavy: B1 heavy with G55T, H73D
# light: B1 light
# B11: 1.17.1-1 (antibody, human IgG1, kappa)
# heavy: B1 heavy with G55A
# light: B1 light
# B12: 1.25.1-1 (antibody, human IgG1, kappa)
# heavy: B1 heavy with G55T, K88S, A89R
# light: B1 light
# B13: 1.30.1-1 (antibody, human IgG1, kappa)
# heavy: B1 heavy with G55T, Q118M
# light: B1 light
# B14: 1.31.1-1 (antibody, human IgG1, kappa)
# heavy: B1 heavy with L5V, A10E, G55T, V97T
# light: B1 light
# B15: 1.31.32-1 (antibody, human IgG1, kappa)
# heavy: B1 heavy with L5V, A10E, G55T, V97T
# light: B1 light with N68T, N72S, N73S, V91T
# B16: 1.32.1-1 (antibody, human IgG1, kappa)
# heavy: B1 heavy with L5V, A10E, G55T, S105T
# light: B1 light
# B17: 1.26.1-1 (antibody, human IgG1, kappa)
# heavy: B1 heavy with G55T, V97T
# light: B1 light
# B18: 1.19.1-1 (antibody, human IgG1, kappa)
# heavy: B1 heavy with G55T, S69T
# light: B1 light
# B19: 1.18.1-1 (antibody, human IgG1, kappa)
# heavy: B1 heavy with G55H
# light: B1 light
# Target: BSA (UniProt P02769 25-607)
# Assay: single-point ELISA, BSA control
row,Binder,ELISA A450 [A450]
1,B1,0.07
2,B2,0.06
3,B3,0.06
4,B4,0.06
5,B5,0.06
6,B6,0.07
7,B7,0.07
8,B8,0.06
9,B9,0.06
10,B10,0.07
11,B11,0.06
12,B12,0.06
13,B13,0.06
14,B14,0.06
15,B15,0.06
16,B16,0.06
17,B17,0.06
18,B18,0.06
19,B19,0.07

# Target: gp120 Bal (HIV (Bal))
# Assay: single-point ELISA at EC50 conc. of A-1
row,Binder,ELISA A450 [A450]
1,B1,0.92
2,B2,0.98
3,B3,0.89
4,B4,1.03
5,B5,0.89
6,B6,0.98
7,B7,0.86
8,B8,1.05
9,B9,0.76
10,B10,0.87
11,B11,0.84
12,B12,1.07
13,B13,0.81
14,B14,0.82
15,B15,0.98
16,B16,0.93
17,B17,0.81
18,B18,0.85
19,B19,0.97

# Target: gp120 SHIV SF162 P3 (SHIV SF162 P3)
# Assay: single-point ELISA at EC50 conc. of A-1
row,Binder,ELISA A450 [A450]
1,B1,0.9
2,B2,1.09
3,B3,0.74
4,B4,0.98
5,B5,0.91
6,B6,0.97
7,B7,0.86
8,B8,0.99
9,B9,0.82
10,B10,0.82
11,B11,0.31
12,B12,1.03
13,B13,1.03
14,B14,0.87
15,B15,0.91
16,B16,0.91
17,B17,0.94
18,B18,0.96
19,B19,1.36

# Target: gp120 CAAN (HIV (CAAN))
# Assay: single-point ELISA at EC50 conc. of A-1
row,Binder,ELISA A450 [A450]
1,B1,0.87
2,B2,0.9
3,B3,0.86
4,B4,1.08
5,B5,0.8
6,B6,1.02
7,B7,0.86
8,B8,0.99
9,B9,0.86
10,B10,0.77
11,B11,0.7
12,B12,1.16
13,B13,1.05
14,B14,0.92
15,B15,1.04
16,B16,0.83
17,B17,1
18,B18,0.93
19,B19,1.18
